Numbering of substitutions follows the chain as printed. Names may count otherwise.
B1: Bok-S (short splicing variant of Bok, rat) (other)
chain: MEVLRRSSVFAAEIMDAFDRSPTDKELVAQAKALGREYVHARLLRAGLSWSAPERASPAPGGRLAEVCTVLLRLGITWGKVVSLYSVAAGLAVDCVRQAQPAMVHALVDCLGEFVRKTLATWLRRRGGWTDVLKCVVSTDPGFRSHWLVATLCSFGRFLKAAFFLLLPER
notes: also called truncated Bok
B2: Bok-L (Bcl-2-related ovarian killer, long form, rat) (other)
chain: MEVLRRSSVFAAEIMDAFDRSPTDKELVAQAKALGREYVHARLLRAGLSWSAPERASPAPGGRLAEVCTVLLRLGDELEQIRPSVYRNVARQLHIPLQSEPVVTDAFLAVAGHIFSAGITWGKVVSLYSVAAGLAVDCVRQAQPAMVHALVDCLGEFVRKTLATWLRRRGGWTDVLKCVVSTDPGFRSHWLVATLCSFGRFLKAAFFLLLPER
notes: also called full-length Bok protein
B3: BokGGGG (Bok-L 71 LLRL 74 to 71 GGGG 74) (other)
chain: B2 chain with L71G, L72G, R73G, L74G
notes: also called BokGGGG mutant
B4: BokADE (Bok-L G75A) (other)
chain: B2 chain with G75A
notes: also called BokADE: G 75 A
B5: BokAAA (Bok-L 75 AAA 77) (other)
chain: B2 chain with G75A, D76A, E77A
notes: also called BokAAA: 75 AAA 77
B6: BHRF1 (other)
chain: MAYSTREILLALCIRDSRVHGNGTLHPVLELAARETPLRLSPEDTVVLRYHVLLEEIIERNSETFTETWNRFITHTEHVDLDFNSVFLEIFHRGDPSLGRALAWMAWCMHACRTLCCNQSTPYYVVDLSVRGMLEASEGLDGWIHQQGGWSTLIEDNIPGSRRFSWTLFLAGLTLSLLVICSYLFISRGRH

How the values were obtained:
BHRF1 = molecular target: B6; test: yeast two-hybrid, Bok-S-GAL4-AD vs GAL4-BD fusion
Mcl-1 (rat) [1] = molecular target: T1, Mcl-1 (rat) (rat, UniProt Q9Z1P3 1-330); test: yeast two-hybrid, Bok-S-GAL4-AD vs GAL4-BD fusion
Mcl-1 (rat) [2] = molecular target: T1, Mcl-1 (rat); test: yeast two-hybrid, yeast cell growth grade (++ prominent, + moderate)
Method: (§1) Specific binding of different protein pairs was evaluated based on the activation of GAL1-HIS3 and GAL4-lacZ reporter genes.

Mcl-1 (rat) [3] = molecular target: T1, Mcl-1 (rat); test: yeast two-hybrid, mutant Bok-L-GAL4-AD vs GAL4-BD fusion
Method: Yeast two-hybrid assay. […] After transformation of yeast cells, colonies containing different protein pairs were selected on plates lacking tryptophan and leucine. To test for specific protein-protein interactions, positive transformants were further selected for growth in media deficient for tryptophan, leucine and histidine but containing 5-30 mM 3-aminotriazole to inhibit endogenous histidine production. A minimum of five independent transformants containing each pair of fusion cDNAs was routinely analyzed.
The mutants included alanine substitutions at the highly conserved glycine 75 or glycine 75 plus flanking aspartic acid 76 and glutamic acid 77 (BokADE: G 75 A and BokAAA: 75 AAA 77). In addition, a glycine substitution was made for leucine 71 to leucine 74 (BokGGGG: 71 LLRL 74 to 71 GGGG 74).

[4] = molecular target: B2; test: yeast two-hybrid, yeast cell growth grade (++ prominent, + moderate)
Method: as §1

T1 sequence (Q9Z1P3 whole entry, the tested form may be a part): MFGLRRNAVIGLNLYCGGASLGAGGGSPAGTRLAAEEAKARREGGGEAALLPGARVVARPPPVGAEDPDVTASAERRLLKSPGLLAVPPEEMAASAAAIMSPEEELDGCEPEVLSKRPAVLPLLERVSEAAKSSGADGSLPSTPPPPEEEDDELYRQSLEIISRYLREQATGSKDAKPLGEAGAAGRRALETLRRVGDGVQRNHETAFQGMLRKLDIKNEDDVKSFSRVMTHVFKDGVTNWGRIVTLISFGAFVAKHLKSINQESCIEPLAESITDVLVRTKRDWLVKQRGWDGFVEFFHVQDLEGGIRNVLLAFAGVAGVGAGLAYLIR

B1
binding result (BHRF1): no binding | binding result (Mcl-1 (rat) [1]): no binding

B2
binding result (Mcl-1 (rat) [2]): binds

B3
binding result (Mcl-1 (rat) [3]): no binding

B4
binding result (Mcl-1 (rat) [3]): no binding

B5
binding result (Mcl-1 (rat) [3]): no binding

B6
binding result [4]: binds

— patent US20040253629A1 (Stanford University, published 2004)
